# Values of other authors as cited in paper PMC3164694.
# Key:
# MMP-2 (Homo sapiens) = MMP-2 (Homo sapiens) (UniProt P08253)
# TIMP-2 (Homo sapiens) = TIMP-2 (Homo sapiens) (UniProt P16035)
# MMP-2 (Homo sapiens), sequence (P08253 110-660): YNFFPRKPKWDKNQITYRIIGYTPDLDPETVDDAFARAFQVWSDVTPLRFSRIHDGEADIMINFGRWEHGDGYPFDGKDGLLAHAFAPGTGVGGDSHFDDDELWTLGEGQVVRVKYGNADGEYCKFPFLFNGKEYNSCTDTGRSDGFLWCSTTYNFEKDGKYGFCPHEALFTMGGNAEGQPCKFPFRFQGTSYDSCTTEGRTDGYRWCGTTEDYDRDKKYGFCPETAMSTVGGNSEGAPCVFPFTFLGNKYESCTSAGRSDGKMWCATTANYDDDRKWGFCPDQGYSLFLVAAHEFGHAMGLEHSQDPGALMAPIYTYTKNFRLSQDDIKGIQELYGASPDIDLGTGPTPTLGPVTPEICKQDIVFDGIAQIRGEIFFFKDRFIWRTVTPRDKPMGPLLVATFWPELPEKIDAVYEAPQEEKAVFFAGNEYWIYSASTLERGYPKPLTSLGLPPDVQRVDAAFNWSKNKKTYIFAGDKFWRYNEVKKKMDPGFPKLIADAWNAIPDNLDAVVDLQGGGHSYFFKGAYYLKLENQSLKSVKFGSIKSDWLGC
Substance,Kd (MMP-2 (Homo sapiens)),Kd (TIMP-2 (Homo sapiens))
MT1-MMP/TIMP-2 complex (from UniProt P50281),0.56 nM,–
MT1-MMP (from UniProt P50281),–,2.54 nM
